Among the data in patent US20150132331A1 are fold better recognition than commercial full-length HA values, retold here.

The target in the assay is HA stem domain construct mutant M6 (A/California/05/2009 (H1N1) HA stem fused to foldon, refolded trimer) (Influenza A virus A/California/05/2009 (H1N1)).

In turn, “antibody C179 (Mouse IgG) (TAKAR Bio INC.)” had a fold better recognition than commercial full-length HA of 30 fold.
